These results are taken from patent publication US20240002497A1 (Merck Sharp & Dohme, published 2024).

In assay [1] the target is T1, huNav157 chimera 14 + β1-β2-β3 (human).
T1 construct: Chimera of huNav1.7α (extracellular loops and transmembrane helices) and huNav1.5α (intracellular loops); also called Nav157ch14-β1-β2-β3; huNav157 chimera 14-beta1-beta2-beta3
Kind of assay: binding FACS, HEK FlpIn cells.

Assay [2] addresses T2, huNav1.7α + β1-β2-β3 (human Nav1.7α co-expressed with Navβ1, Navβ2 and Navβ3) (human).
T2 construct: also called huNav1.7-beta1-beta2-beta3
Kind of assay: binding FACS, HEK FlpIn cells.

Assay [3] deals with T3, huNav157 chimera 14 (human).
T3 construct: Chimera without β subunits; also called Nav157ch14
Kind of assay: binding FACS, HEK FlpIn cells.

Assay [4] addresses T4, huNav1.7α (human Nav1.7 alpha subunit, expressed without β subunits) (human, UniProt Q15858 1-1988).
T4 construct: also called HEK293 human Nav1.7α; HEKa Nav1.7α
Kind of assay: binding FACS, HEKa cells.

Assay [5] deals with T4, huNav1.7α (human Nav1.7 alpha subunit, …). Kind of assay: binding FACS, HEKa cells. This is another data set of the same source.
Assay [6] addresses T5, huNav1.7α + β1 (human Nav1.7α co-expressed with Navβ1) (human, UniProt Q15858 1-1988; Q07699 19-218).
T5 construct: also called HEK293 human Nav1.7α + β1; HEKa/β1 Nav1.7α
Kind of assay: binding FACS, HEKa/β1 cells.

The target of assay [7] is T1, huNav157 chimera 14 + β1-β2-β3. Kind of assay: binding FACS, HEK FlpIn cells. This is another data set of the same source.
In assay [8] the target is T3, huNav157 chimera 14. Kind of assay: binding FACS, HEK FlpIn cells. This is another data set of the same source.
The target of assay [9] is T5, huNav1.7α + β1 (human Nav1.7α …). Kind of assay: binding FACS, HEKa/β1 cells. This is another data set of the same source.
Assay [10] addresses T6, huNav1.7α + β1-β2-β3 (human, UniProt Q15858 1-1988; A5A6L6 19-218; O60939 30-215; Q2KI11 23-215).
T6 construct: Cell line (CHO FlpIn, HEK FlpIn, transient HEK293T) is named under assay; also called huNav1.7-beta1-beta2-beta3; human Nav1.7α with Navβ1, Navβ2 and Navβ3
Kind of assay: competition FACS, CHO FlpIn cells, vs EC25 of F0103275B05(N93R).

Assay [11] addresses T7, huNav1.7α(E281V) + β1-β2-β3 (human).
T7 construct: polyprotein as encoded; the entry already carries E281V; also called huNav1.7(E281V)-beta1-beta2-beta3
Kind of assay: binding FACS, CHO FlpIn cells. The procedure, abridged: (§1)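 Flow cytometry binding assay on stable CHO FlpIn cell lines expressing Nav1.7α (human wild type, single DI S5-S6 point variants, or rhesus) with β1-β2-β3. Cells in FACS buffer (PBS, 10% FBS, NaN₃) were plated at 1×10^5 cells/well in 96-well V-bottom plates. FLAG3-tagged ISVDs were added for 30 minutes at 4° C and detected with murine anti-Flag. Dead cells were excluded using 1 μg/mL propidium iodide, and EC50 was determined.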

For assay [12], the target named is T6, huNav1.7α + β1-β2-β3. Kind of assay: binding FACS, CHO FlpIn cells. The procedure, abridged: as §1
Assay [13] deals with T8, huNav1.7α(R277Q) + β1-β2-β3 (human).
T8 construct: polyprotein as encoded; the entry already carries R277Q; also called huNav1.7(R277Q)-beta1-beta2-beta3
Kind of assay: binding FACS, CHO FlpIn cells. The procedure, abridged:
as §1

Assay [14] concerns the target T9, huNav1.7α(F276V) + β1-β2-β3 (human, UniProt Q15858 1-1988; A5A6L6 19-218; O60939 30-215; Q2KI11 23-215).
T9 construct: polyprotein as encoded, P2A sites liberate the subunits; the entry already carries F276V; also called huNav1.7(F276V)-beta1-beta2-beta3
Kind of assay: binding FACS, CHO FlpIn cells. A digest of the protocol: as §1

The target of assay [15] is T10, huNav1.7α(V331M) + β1-β2-β3 (human).
T10 construct: polyprotein as encoded; the entry already carries V331M; also called huNav1.7(V331M)-beta1-beta2-beta3
Kind of assay: binding FACS, CHO FlpIn cells. A digest of the protocol: as §1

In assay [16] the target is T11, rhNav1.7α + β1-β2-β3 (rhesus monkey).
T11 construct: also called rhNav1.7-beta1-beta2-beta3; rhesus Nav1.7α
Kind of assay: competition FACS, CHO FlpIn cells, vs EC40 of F0103275B05(N93R).

The target of assay [17] is T6, huNav1.7α + β1-β2-β3. Kind of assay: competition FACS, HEK FlpIn cells, vs EC30 of CMYC3-F0103265B04. A digest of the protocol: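 HEK FlpIn cells expressing huNav1.7α+β1-β2-β3 (1×10⁵/well) were incubated 1.5 h at 4 °C with a dilution series of purified ISVD plus CMYC3-tagged F0103265B04 at EC30-equivalent concentration in PBS, 2% FBS, 0.05% NaN₃. Flow cytometry read-out with 5 nM TOPRO3 to exclude dead cells.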

The target of assay [18] is T12, huNav1.7α + β1-β2-β3 (human, UniProt Q15858 1-1988; A5A6L6 19-218; O60939 30-215; Q2KI11 23-215).
T12 construct: also called huNav1.7-beta1-beta2-beta3; huNav1.7-β1-β2-β3
Kind of assay: binding FACS, CHO FlpIn. As to the method: (§2) Binding of the ISVDs to cell-expressed Nav1.7α was detected via murine anti-Flag (Sigma, catalog #F1804). Briefly, cells were resuspended in FACS buffer (PBS, 10% FBS, NaN₃) and transferred to a 96-well V-bottom plate at 1×10^5 cells/well. Purified FLAG3-tagged ISVD was diluted in FACS buffer and added to the cells for 30 minutes at 4° C. […] Prior to the read-out, the samples were resuspended in 1 μg/mL propidium iodide (Sigma, catalog #P4170) to exclude dead cells. Between each step, the cells were centrifuged for 5 minutes at 200 grams and washed with 100 μL/well FACS buffer.

The target in assay [19] is T13, rhNav1.7α + β1-β2-β3 (rhesus monkey).
T13 construct: also called rhNav1.7-beta1-beta2-beta3; rhNav1.7-β1-β2-β3
Kind of assay: binding FACS, CHO FlpIn. The protocol: as §2

Assay [20] deals with T14, muNav1.7α (murine, UniProt Q62205 1-1984).
T14 construct: HEK JmpIn cells; also called murine Nav1.7α
Kind of assay: binding FACS, HEK JmpIn. As to the method: as §2

The target in assay [21] is T14, muNav1.7α. Kind of assay: binding FACS, HEK JmpIn. This is another data set of the same source.
Assay [22] addresses T12, huNav1.7α + β1-β2-β3. Kind of assay: binding FACS, CHO FlpIn. A digest of the protocol:
(§3)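 Cells at 1×10^5 per well incubated 30 min at 4 °C with purified FLAG3-tagged ISVD in FACS buffer (PBS, 10% FBS, NaN₃); bound ISVD detected via murine anti-Flag by flow cytometry, dead cells excluded with 1 μg/mL propidium iodide.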
The source holds these as a separate data set.

For assay [23], the target named is T13, rhNav1.7α + β1-β2-β3. Kind of assay: binding FACS, CHO FlpIn. The procedure, abridged:
as §3
This is another data set of the same source.

Another assay addresses huNav1.7α + β1 (human). Kind of assay: cell-based or functional assay.
In assay [24] the target is T13, rhNav1.7α + β1-β2-β3. Kind of assay: cell-based or functional assay.
Assay [25] has as its target T6, huNav1.7α + β1-β2-β3. Kind of assay: binding FACS, CHO FlpIn cells. A digest of the protocol: as §3
This is another data set of the same source.

In assay [26] the target is T11, rhNav1.7α + β1-β2-β3. Kind of assay: binding FACS, CHO FlpIn cells. The procedure, abridged: as §3
Assay [27] addresses T11, rhNav1.7α + β1-β2-β3. Kind of assay: binding FACS, CHO FlpIn cells. The procedure, abridged: as §1
This is another data set of the same source.

In another assay the target is huNav1.7α (human, UniProt Q15858 1-1988). Kind of assay: cell-based or functional assay.

Read-outs that look alike come from different tables or passages of the source.

B1: F0103387G05 (parental)-FLAG-HIS6 (VHH)
VHH: EVQLVESGGGLVQAGGSLRLSCDASGRILRIGYMRWHRQGAGKQREFVARITDDSATDYADSVKGRFTISRDNAKNTVYLQMNNLNPEDTAVYYCEALVTASVRGGSIHSGTYWGRGTLVTVSS
What is called EC50 is the concentration needed to bring the measured effect to its halfway point. As to B1, the half-maximal effective concentration (EC50) is 3.6 nM in assay [1]; 2.7 nM in assay [2]; 2.8 nM with huNav157 chimera 14 [3]; 3.1 nM in assay [4]; 3.1 nM in assay [5]; 1.9 nM in [6]. Also, the figures for the EC50 (in assay [7]; in the assay with huNav157 chimera 14 [8]; in assay [9]) were 3.6 nM, 2.8 nM and 1.9 nM, respectively. Moreover, the Bmax (in the assay with huNav157 chimera 14 [3]; in [5]) was 100% each time.

B2: F0103387G05 (VHH)
VHH: EVQLVESGGGLVQAGGSLRLSCDASGRILRIGYMRWHRQGAGKQREFVARITDDSATDYADSVKGRFTISRDNAKNTVYLQMNNLNPEDTAVYYCEALVTASVRGGSIHSGTYWGRGTLVTVSS
notes: entry includes the FLAG-HIS6 tag; also called F0103387G05 (parental)-FLAG-HIS6
As a reminder, the IC50 is the concentration that inhibits the measured activity by half. For the molecule B2, the values for the half-maximal inhibitory concentration (IC50) with huNav1.7α + β1-β2-β3 [10] and with huNav1.7α + β1-β2-β3 [17] were 10 nM and 9.4 nM, respectively. Besides, the concentration giving a half-maximal response (EC50) in [11] was 2.3 nM; with huNav1.7α + β1-β2-β3 [12], 2.6 nM; in assay [13], 2.2 nM; in assay [14], 2.4 nM; in [15], 5.9 nM. Also, the binding result with rhNav1.7α + β1-β2-β3 [16] is listed as “no binding”.

B3: F0103464B09 (parental)-FLAG-HIS6 (VHH)
VHH: EVQLVESGGGLVQPGGSLRLSCATTSRAFIRDVFTGWYRRVPGKERELVARIYNGGNTNYADFAKGRFSISRDNAKKMVTLRMSNLKPEDTGVYYCLFSGTINTGREYRSGDYWGQGTLVTVSS
notes: also called F010346B09
Regarding B3, the EC50 with huNav1.7α + β1-β2-β3 [18] turned out to be 5.2 nM; with rhNav1.7α + β1-β2-β3 [19] it was 18 nM; in the assay with muNav1.7α [20] it was 6.3 nM; with muNav1.7α [21] it was 6.3 nM; with huNav1.7α + β1-β2-β3 [22], 5.2 nM; with rhNav1.7α + β1-β2-β3 [23], 18 nM. Besides, the values for the Bmax in the assay with muNav1.7α [20], with huNav1.7α + β1-β2-β3 [22] and with rhNav1.7α + β1-β2-β3 [23] were 74%, 99% and 33%, respectively. The “Qpatch IC50” value with huNav1.7α + β1 turned out to be 7 nM; in the assay with rhNav1.7α + β1-β2-β3 [24], 166 nM.

B4: F0103464B09 (VHH)
VHH: EVQLVESGGGLVQPGGSLRLSCATTSRAFIRDVFTGWYRRVPGKERELVARIYNGGNTNYADFAKGRFSISRDNAKKMVTLRMSNLKPEDTGVYYCLFSGTINTGREYRSGDYWGQGTLVTVSS
notes: entry includes the FLAG-HIS6 tag; also called F0103464B09 (parental)-FLAG-HIS6; F103464B09
Regarding B4, the EC50 is 5.4 nM in the assay with huNav1.7α + β1-β2-β3 [25]; 33 nM with rhNav1.7α + β1-β2-β3 [26]; 2.7 nM in assay [11]; 3.4 nM with huNav1.7α + β1-β2-β3 [12]; 2.6 nM in [13]; 2.7 nM in assay [14]. For the same molecule, the half-maximal effective concentration (EC50) with rhNav1.7α + β1-β2-β3 [27] was 31 nM; in assay [15], 1.6 nM. Besides, the Bmax with rhNav1.7α + β1-β2-β3 [26] stood at 54%. For the same molecule, the results for the IC50 with huNav1.7α + β1-β2-β3 [10] and with rhNav1.7α + β1-β2-β3 [16] were 12 nM and 79 nM, respectively.

B5: F0103265B04-FLAG3-HIS6 (VHH)
VHH: EVQLVESGGGLVQPGGSLRLSCAAPSFIFSNNYMEWYRQAPGKQRDWVARITGRGNTNYLDSVKGRFTISRDDAKNTVYLEIDSLKPEDTAVYYCSALWYGGRAWGKGTLVTVSS
For the molecule B5, the “Qpatch IC50 [M], HEK cells” value with huNav1.7α is 1.2e-07 M. The “Qpatch IC50” value with huNav1.7α + β1 was 120 nM.
